Reference: patent publication US8148141B2, “Peptide-immobilized substrate and method for measuring target protein” (HiPep Laboratories, priority 2001, dated 2012)
Ends that are not written are not given here. Rf = not defined here

Experiments:
calmodulin = calmodulin (Homo sapiens, UniProt P0DP23); assay: calmodulin measurement with immobilized fluorescent-labeled α-helix peptide chip; type: binding; settings: carboxyfluorescein peptide; exciting 490 nm, detection 520 nm; in the presence of calmodulin; 25° C., 5 minutes
Procedure: As schematically shown in FIG. 3, calmodulin was measured using a peptide chip in which peptides having α-helix structure, each of which both termini were labeled with different fluorescent labels, were immobilized on a substrate. The procedures were carried out as follows:
The sequence of the core region of the peptides, which forms α-helix structure was designed by molecular modeling using a computer (molecular modeling using Insight II/Discover, Molecular Simulation, U.S.) based on the amino acid sequence of the peptide described in a reference (K. T. O'Neil and W. F. DeGrado, Trend Biochem Sci, 15, 59-64 (1990)). As a result, the amino acid sequence Leu-Lys-Lys-Leu-Leu-Lys-Leu-Leu-Lys-Lys-Leu-Leu-Lys-Leu (SEQ ID NO:1) was employed as the amino acid sequence of the core region. […]

amylase = amylase measurement with immobilized fluorescent-labeled β-loop peptide chip; type: binding; settings: carboxyfluorescein group; exciting 490 nm, detection 520 nm; amylase 1.0 μM, Tris buffer pH7.4, 150 mM NaCl; 25° C., 5 minutes
Procedure: As schematically shown in FIG. 4, amylase was measured using a peptide chip in which a peptide whose one terminus was labeled with a fluorescent label, which peptide has β-loop structure, was immobilized on a substrate. The procedures were carried out as follows:
As in Example 1, as schematically shown in FIG. 4, a peptide which forms β-loop structure was designed by molecular modeling using a computer based on the amino acid sequence of the peptide described in a reference (F. J. Blanco et al., Eur J Biochem 200, 345-351 (1991), S. Ono et al, Biosci Biotechnol Biochem, 62, 1621-1623 (1998)). As a result, as the amino acid sequence of the core region, the sequence Tyr-Gln-Ser-Trp-Arg-Tyr-Ser-Gln-Ala (SEQ ID NO: 5) was employed. The peptide having this sequence to which Cys residue as an anchor for immobilization was added to one terminus, and to which Lys residue having a fluorescent group Rf (fluorescent group such as carboxyfluorescein in FIG. 4) was added to another terminus, was synthesized. […] When carboxyfluorescein group was used, fluorescence measurement was performed employing exciting wavelength of 490 nm and detection wavelength of 520 nm. By adding an amylase solution (Tris buffer pH7.4, 150 mM NaCl, amylase concentration: 1.0 μM), about ten times increase of the fluorescence intensity was measured, so that the amylase was able to be detected and quantified. […]

Substance	increase of the fluorescence intensity (calmodulin)	increase of the fluorescence intensity (amylase)
Lys(Rf3)-Leu-Lys-Lys-Leu-Leu-Lys-Leu-Leu-Lys-Lys-Leu-Leu-Lys-Leu-Cys-NH2 (K(carboxyfluorescein)LKKLLKLLKKLLKLC-NH2) [peptide containing carboxylfluorescein, Rf3 carboxyfluorescein group]	about ten	
Lys(Rf)-Tyr-Gln-Ser-Trp-Arg-Tyr-Ser-Gln-Ala-Cys-NH2 (K(Rf)YQSWRYSQAC-NH2; reading uncertain; also: printed as Lys(Rf)-Tyr-Gln-Ser-Trp-Arg-Tyr-Ser-Gln-Ala-Cys-NH2) [SEQ ID NO: 6, Rf fluorescent group such as carboxyfluorescein]		about ten
